Each sequence was assayed against T1, ArcR (Staphylococcus aureus NCTC8325 (?)) (UniProt Q2FUY1) (assay: EMSA). Conditions: 25 mM HEPES, 300 mM NaCl, 1 mM DTT, 10% glycerol, pH 7.8; 30 min at room temperature ([…]) or 37 °C ([…].
T1 sequence: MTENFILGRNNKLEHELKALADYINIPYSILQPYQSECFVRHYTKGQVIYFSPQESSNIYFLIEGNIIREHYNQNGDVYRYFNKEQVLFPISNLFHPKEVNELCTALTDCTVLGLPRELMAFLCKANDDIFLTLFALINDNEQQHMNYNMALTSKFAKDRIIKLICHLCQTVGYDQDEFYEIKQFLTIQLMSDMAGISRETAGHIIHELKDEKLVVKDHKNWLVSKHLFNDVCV
In the case of “ACCTACCTTTCGTTAGTTAGGTTGTAAGCCATATGGTAATTGATAGTATTTTAATTTGCAATAGATTGTTGTTATAATTAAACGGAAATATTTGTAATTGCAACTTAATTTTCCTGTAACATAGTGTGATTAATTTTCAGTAGGGGGTTATAAAAATTGAAGGATAAGATTATTGATAACGCAATAACCTTATTTTCAGAGAAGGGGTATGACGGTACAACACTTGATGATATAGCT (double strand) [ica promoter (icaA) fragment]”, the binding is reported as “binds”. “AGCGCGTGTTGTTATGTCGCGAATGGTAATCTTTTCTAAATCTTTTTCTTGTAGTAATTTAGTGAACGCTTGTTTAATGGAGGACTTTGTCTTTCTAATTCGCCTATCTTCTTTCAAAAATAAATCAACCTCCTTGTGTTATTGAACAATGTGGGTGTATTTGTCTATTAATGAACGTATTGATGAACATTGTGTATTGTTTATTCCCACTTACATATTATAATAGACAACATGCGAAATATTCAACACATTGTCTAATAAGGAGGT (double strand) [tetA promoter fragment]” was tested, and the binding was “no binding”. In the case of “TCAACTTTGACTAACCCTCGAAATTGAAATGCTTCCTTTCAAATTTTAAATAAAAGTTAAAAACATATTCTTAAAATAATCACTCATCATCACTCAGTAATTTATCAGTTGCTACATTAAATATACTAATATAAACGATTATAAATATTTGATATGTCTCAACTGCAATATTCTAAATTGACATATTGATTATTGTTTCCTCAAATCGTTTTAAAAAATAGAAGGATGATGAAAATGAAAACACGTATAGTCAGCTCAGTAACAACAACACTATTGCTAGGTT (double strand) [hla promoter fragment]”, the binding is reported as “binds”.

Reference: paper PMC10384999
